We go through seven substances from PMC8827656.

Several values for one entry are separate records, joined by “and”; a condition that tells them apart may be missing. Equal values may be shown once.

Assay [1] addresses photosystem I (PSI) complex from FRL-acclimated Chlorogloeopsis fritschii PCC 9212 (C. fritschii PCC 9212 (endogenous in the cells)). The assay is described as follows: sucrose gradient sedimentation + negative-stain TEM; thylakoid membranes solubilised with 1% DDM, 5-20% sucrose gradients with 0.05% DDM, 140,000g for 12-16 h at 4°C; bands negatively stained with uranyl acetate and imaged by TEM.

Assay [2] has the same target. The assay is described as follows: atomic force microscopy; thylakoid membrane patches from 20-50% sucrose gradients with 0.1% digitonin, adsorbed on mica; PeakForce mode under liquid; 10 mM Hepes pH 7.5, 100 mM KCl; oligomer assigned from heights, nearest-neighbour angles and lateral distances.
Assay [3] addresses photosystem I (PSI) complex from FRL-acclimated Chroococcidiopsis thermalis PCC 7203 (C. thermalis PCC 7203 (endogenous in the cells)). As to the kind of experiment: native gel or EMSA; BN-PAGE; thylakoid membranes solubilised with 0.4 or 2% DDM, 4-16% NativePAGE gels.
The target is the same in assay [4]. As to the kind of experiment: sucrose gradient sedimentation + negative-stain TEM; thylakoid membranes solubilised with 1% DDM, 5-20% sucrose gradients with 0.05% DDM, 140,000g for 12-16 h at 4°C; bands negatively stained with uranyl acetate and imaged by TEM.
The target is the same in assay [5]. The assay is described as follows: atomic force microscopy; thylakoid membrane patches from 20-50% sucrose gradients with 0.1% digitonin, adsorbed on mica; PeakForce mode under liquid; 10 mM Hepes pH 7.5, 100 mM KCl; oligomer assigned from heights, nearest-neighbour angles and lateral distances.
Assay [6] deals with photosystem I (PSI) complex from FRL-acclimated Synechococcus sp. PCC 7335 (Synechococcus sp. PCC 7335 (endogenous in the cells)). As to the kind of experiment: sucrose gradient sedimentation; thylakoid membranes solubilised with 1% DDM, 5-20% sucrose gradients with 0.05% DDM, 140,000g for 12-16 h at 4°C; bands assigned by position (fig. S3B), no TEM told.
Assay [7] shares this target. As to the kind of experiment: atomic force microscopy; thylakoid membrane patches from 20-50% sucrose gradients with 0.1% digitonin, adsorbed on mica; PeakForce mode under liquid; 10 mM Hepes pH 7.5, 100 mM KCl; oligomer assigned from heights, nearest-neighbour angles and lateral distances.
The target of assay [8] is photosystem I (PSI) complex from white-light-grown Chlorogloeopsis fritschii PCC 9212 (C. fritschii PCC 9212 (endogenous in the cells)). As to the kind of experiment: sucrose gradient sedimentation + negative-stain TEM; thylakoid membranes solubilised with 1% DDM, 5-20% sucrose gradients with 0.05% DDM, 140,000g for 12-16 h at 4°C; bands negatively stained with uranyl acetate and imaged by TEM.

Assay [9] has the same target. The assay is described as follows: atomic force microscopy; thylakoid membrane patches from 20-50% sucrose gradients with 0.1% digitonin, adsorbed on mica; PeakForce mode under liquid; 10 mM Hepes pH 7.5, 100 mM KCl; oligomer assigned from heights, nearest-neighbour angles and lateral distances.
Assay [10] concerns the target photosystem I (PSI) complex from white-light-grown Chroococcidiopsis thermalis PCC 7203 (C. thermalis PCC 7203 (endogenous in the cells)). The assay is described as follows: native gel or EMSA; BN-PAGE; thylakoid membranes solubilised with 0.4 or 2% DDM, 4-16% NativePAGE gels. A general note: A gel shift assay detects complexes by their altered migration in electrophoresis.

Assay [11] has the same target. The assay is described as follows: atomic force microscopy; thylakoid membrane patches from 20-50% sucrose gradients with 0.1% digitonin, adsorbed on mica; PeakForce mode under liquid; 10 mM Hepes pH 7.5, 100 mM KCl; oligomer assigned from heights, nearest-neighbour angles and lateral distances.
Assay [12] deals with photosystem I (PSI) complex from white-light-grown Synechococcus sp. PCC 7335 (Synechococcus sp. PCC 7335 (endogenous in the cells)). The assay is described as follows: sucrose gradient sedimentation; thylakoid membranes solubilised with 1% DDM, 5-20% sucrose gradients with 0.05% DDM, 140,000g for 12-16 h at 4°C; bands assigned by position (fig. S3B), no TEM told.
The target is the same in assay [13]. The assay is described as follows: atomic force microscopy; thylakoid membrane patches from 20-50% sucrose gradients with 0.1% digitonin, adsorbed on mica; PeakForce mode under liquid; 10 mM Hepes pH 7.5, 100 mM KCl; oligomer assigned from heights, nearest-neighbour angles and lateral distances.
Assay [14] shares this target. The assay is described as above. The source holds these as a separate data set.
For assay [15], the target named is photosystem II (PSII) complex from FRL-acclimated Chroococcidiopsis thermalis PCC 7203 (C. thermalis PCC 7203 (endogenous in the cells)). As to the kind of experiment: sucrose gradient sedimentation + negative-stain TEM; thylakoid membranes solubilised with 1% DDM, 5-20% sucrose gradients with 0.05% DDM, 140,000g for 12-16 h at 4°C; bands negatively stained with uranyl acetate and imaged by TEM.

As usually defined, the stoichiometry N is the number of molecules, sites or subunits per partner or assembly.

Take “photosystem I (PSI) complex from FRL-acclimated Chlorogloeopsis fritschii PCC 9212”: the stoichiometry N in [1] and in assay [2] was 3 in each case.

Regarding “photosystem I (PSI) complex from FRL-acclimated Chroococcidiopsis thermalis PCC 7203”, the stoichiometry N in assay [3] was 3; in [4] it was 3 and 2; in assay [5], 3.

On to “photosystem I (PSI) complex from FRL-acclimated Synechococcus sp. PCC 7335”, for which the stoichiometry N in assay [6] is 3 and 2; in assay [7] it was 3.

Consider “photosystem I (PSI) complex from white-light-grown Chlorogloeopsis fritschii PCC 9212”, for which the stoichiometry N was 4 and 2 in assay [8]; 2 in [9].

Consider “photosystem I (PSI) complex from white-light-grown Chroococcidiopsis thermalis PCC 7203”, for which the stoichiometry N in [10] and in assay [11] was 2 throughout.

“photosystem I (PSI) complex from white-light-grown Synechococcus sp. PCC 7335”: the stoichiometry N in assay [12] is 2 and 3 and 4; in assay [13] it was 2; in assay [14], 3.

Consider “photosystem II (PSII) complex from FRL-acclimated Chroococcidiopsis thermalis PCC 7203”, for which the stoichiometry N in assay [15] is 2.
